Biological target: mixture of three Der p 2 specific recombinant human IgE clones H10, H12, P4E (human) (UniProt P01854)
Assay: RBL-SX38 IgE displacement, FACS

Chain of mixture of three Der p 2 specific recombinant human IgE clones H10, H12, P4E (human) (P01854 other isoform, or with tags, fused parts or gaps): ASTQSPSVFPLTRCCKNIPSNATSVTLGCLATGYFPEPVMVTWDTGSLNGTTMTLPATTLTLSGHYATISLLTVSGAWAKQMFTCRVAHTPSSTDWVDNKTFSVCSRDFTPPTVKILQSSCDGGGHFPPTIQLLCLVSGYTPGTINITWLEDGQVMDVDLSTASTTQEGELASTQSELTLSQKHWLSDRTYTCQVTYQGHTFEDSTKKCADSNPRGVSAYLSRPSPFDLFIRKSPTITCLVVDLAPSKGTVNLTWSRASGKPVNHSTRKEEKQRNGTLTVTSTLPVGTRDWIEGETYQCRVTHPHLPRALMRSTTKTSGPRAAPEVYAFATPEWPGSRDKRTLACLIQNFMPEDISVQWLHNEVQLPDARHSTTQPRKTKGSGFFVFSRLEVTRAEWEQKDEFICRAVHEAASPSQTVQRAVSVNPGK

EC50 [nM]	Max effect/effect 1 µM [%]	Binder
0.5	98	NIgG4B2A1(G4S)3 (Fc fusion) chain 1: QVQLVESGGGLVQAGGSLRLSCAVFGSTFSNNVADWYRQAPGKQRELVARISASGATREYGDSVKGRFTISRDDAKNTMYLQMNNLKPEDTAVYRCHKIEWEDLSRKDYWGQGTQVTVSGGGGSGGGGSGGGGSGPPCPPCPAPEFLGGPSVFLFPPKPKDTLMISRTPEVTCVVVDVSQEDPEVQFNWYVDGVEVHNAKTKPREEQFNSTYRVVSVLTVLHQDWLNGKEYKCKVSNKGLPSSIEKTISKAKGQPREPQVYTLPPCQEEMTKNQVSLWCLVKGFYPSDIAVEWESNGQPENNYKTTPPVLDSDGSFFLYSRLTVDKSRWQEGNVFSCSVMHEALHNHYTQKSLSLSLGK chain 2: EVQLLESGGGLVQPGGSLRLSCAASGFTFGNYDMAWVRQAPGKRPEWVSSIDTGGDITHYADSVKGRFTISRDNAKNTLYLQMNSLRPEDTAVYWCATDEEYALGPNEFDYYGQGTLVTVSSGGGGSGGGGSGGGGSGPPCPPCPAPEFLGGPSVFLFPPKPKDTLMISRTPEVTCVVVDVSQEDPEVQFNWYVDGVEVHNAKTKPREEQFNSTYRVVSVLTVLHQDWLNGKEYKCKVSNKGLPSSIEKTISKAKGQPREPQVCTLPPSQEEMTKNQVSLSCAVKGFYPSDIAVEWESNGQPENNYKTTPPVLDSDGSFFLVSRLTVDKSRWQEGNVFSCSVMHEALHNHYTQKSLSLSLGK
0.4	99	NIgG4B2A1(RS) (Fc fusion) chain 1: QVQLVESGGGLVQAGGSLRLSCAVFGSTFSNNVADWYRQAPGKQRELVARISASGATREYGDSVKGRFTISRDDAKNTMYLQMNNLKPEDTAVYRCHKIEWEDLSRKDYWGQGTQVTVSRSGPPCPPCPAPEFLGGPSVFLFPPKPKDTLMISRTPEVTCVVVDVSQEDPEVQFNWYVDGVEVHNAKTKPREEQFNSTYRVVSVLTVLHQDWLNGKEYKCKVSNKGLPSSIEKTISKAKGQPREPQVYTLPPCQEEMTKNQVSLWCLVKGFYPSDIAVEWESNGQPENNYKTTPPVLDSDGSFFLYSRLTVDKSRWQEGNVFSCSVMHEALHNHYTQKSLSLSLGK chain 2: EVQLLESGGGLVQPGGSLRLSCAASGFTFGNYDMAWVRQAPGKRPEWVSSIDTGGDITHYADSVKGRFTISRDNAKNTLYLQMNSLRPEDTAVYWCATDEEYALGPNEFDYYGQGTLVTVSSRSGPPCPPCPAPEFLGGPSVFLFPPKPKDTLMISRTPEVTCVVVDVSQEDPEVQFNWYVDGVEVHNAKTKPREEQFNSTYRVVSVLTVLHQDWLNGKEYKCKVSNKGLPSSIEKTISKAKGQPREPQVCTLPPSQEEMTKNQVSLSCAVKGFYPSDIAVEWESNGQPENNYKTTPPVLDSDGSFFLVSRLTVDKSRWQEGNVFSCSVMHEALHNHYTQKSLSLSLGK

Further lines, the binder ahead of its results:

Binder	EC50 [nM]	Max effect/effect 1 µM [%]
CIgG4B2A1(G4S)2 (Fc fusion) chain 1: GPPCPPCPAPEFLGGPSVFLFPPKPKDTLMISRTPEVTCVVVDVSQEDPEVQFNWYVDGVEVHNAKTKPREEQFNSTYRVVSVLTVLHQDWLNGKEYKCKVSNKGLPSSIEKTISKAKGQPREPQVYTLPPCQEEMTKNQVSLWCLVKGFYPSDIAVEWESNGQPENNYKTTPPVLDSDGSFFLYSRLTVDKSRWQEGNVFSCSVMHEALHNHYTQKSLSLSLGKGGGGSGGGGSQVQLVESGGGLVQAGGSLRLSCAVFGSTFSNNVADWYRQAPGKQRELVARISASGATREYGDSVKGRFTISRDDAKNTMYLQMNNLKPEDTAVYRCHKIEWEDLSRKDYWGQGTQVTVS chain 2: GPPCPPCPAPEFLGGPSVFLFPPKPKDTLMISRTPEVTCVVVDVSQEDPEVQFNWYVDGVEVHNAKTKPREEQFNSTYRVVSVLTVLHQDWLNGKEYKCKVSNKGLPSSIEKTISKAKGQPREPQVCTLPPSQEEMTKNQVSLSCAVKGFYPSDIAVEWESNGQPENNYKTTPPVLDSDGSFFLVSRLTVDKSRWQEGNVFSCSVMHEALHNHYTQKSLSLSLGKGGGGSGGGGSEVQLLESGGGLVQPGGSLRLSCAASGFTFGNYDMAWVRQAPGKRPEWVSSIDTGGDITHYADSVKGRFTISRDNAKNTLYLQMNSLRPEDTAVYWCATDEEYALGPNEFDYYGQGTLVTVSS	1.6	99
CIgG4B2A1(RS) (Fc fusion) chain 1: GPPCPPCPAPEFLGGPSVFLFPPKPKDTLMISRTPEVTCVVVDVSQEDPEVQFNWYVDGVEVHNAKTKPREEQFNSTYRVVSVLTVLHQDWLNGKEYKCKVSNKGLPSSIEKTISKAKGQPREPQVYTLPPCQEEMTKNQVSLWCLVKGFYPSDIAVEWESNGQPENNYKTTPPVLDSDGSFFLYSRLTVDKSRWQEGNVFSCSVMHEALHNHYTQKSLSLSLGKRSQVQLVESGGGLVQAGGSLRLSCAVFGSTFSNNVADWYRQAPGKQRELVARISASGATREYGDSVKGRFTISRDDAKNTMYLQMNNLKPEDTAVYRCHKIEWEDLSRKDYWGQGTQVTVS chain 2: GPPCPPCPAPEFLGGPSVFLFPPKPKDTLMISRTPEVTCVVVDVSQEDPEVQFNWYVDGVEVHNAKTKPREEQFNSTYRVVSVLTVLHQDWLNGKEYKCKVSNKGLPSSIEKTISKAKGQPREPQVCTLPPSQEEMTKNQVSLSCAVKGFYPSDIAVEWESNGQPENNYKTTPPVLDSDGSFFLVSRLTVDKSRWQEGNVFSCSVMHEALHNHYTQKSLSLSLGKRSEVQLLESGGGLVQPGGSLRLSCAASGFTFGNYDMAWVRQAPGKRPEWVSSIDTGGDITHYADSVKGRFTISRDNAKNTLYLQMNSLRPEDTAVYWCATDEEYALGPNEFDYYGQGTLVTVSS	273	70
NIgG4B2A1(G4S)1 (Fc fusion) chain 1: QVQLVESGGGLVQAGGSLRLSCAVFGSTFSNNVADWYRQAPGKQRELVARISASGATREYGDSVKGRFTISRDDAKNTMYLQMNNLKPEDTAVYRCHKIEWEDLSRKDYWGQGTQVTVSGGGGSGPPCPPCPAPEFLGGPSVFLFPPKPKDTLMISRTPEVTCVVVDVSQEDPEVQFNWYVDGVEVHNAKTKPREEQFNSTYRVVSVLTVLHQDWLNGKEYKCKVSNKGLPSSIEKTISKAKGQPREPQVYTLPPCQEEMTKNQVSLWCLVKGFYPSDIAVEWESNGQPENNYKTTPPVLDSDGSFFLYSRLTVDKSRWQEGNVFSCSVMHEALHNHYTQKSLSLSLGK chain 2: EVQLLESGGGLVQPGGSLRLSCAASGFTFGNYDMAWVRQAPGKRPEWVSSIDTGGDITHYADSVKGRFTISRDNAKNTLYLQMNSLRPEDTAVYWCATDEEYALGPNEFDYYGQGTLVTVSSGGGGSGPPCPPCPAPEFLGGPSVFLFPPKPKDTLMISRTPEVTCVVVDVSQEDPEVQFNWYVDGVEVHNAKTKPREEQFNSTYRVVSVLTVLHQDWLNGKEYKCKVSNKGLPSSIEKTISKAKGQPREPQVCTLPPSQEEMTKNQVSLSCAVKGFYPSDIAVEWESNGQPENNYKTTPPVLDSDGSFFLVSRLTVDKSRWQEGNVFSCSVMHEALHNHYTQKSLSLSLGK	0.3	97
CIgG4B2A1(G4S)1 (Fc fusion) chain 1: GPPCPPCPAPEFLGGPSVFLFPPKPKDTLMISRTPEVTCVVVDVSQEDPEVQFNWYVDGVEVHNAKTKPREEQFNSTYRVVSVLTVLHQDWLNGKEYKCKVSNKGLPSSIEKTISKAKGQPREPQVYTLPPCQEEMTKNQVSLWCLVKGFYPSDIAVEWESNGQPENNYKTTPPVLDSDGSFFLYSRLTVDKSRWQEGNVFSCSVMHEALHNHYTQKSLSLSLGKGGGGSQVQLVESGGGLVQAGGSLRLSCAVFGSTFSNNVADWYRQAPGKQRELVARISASGATREYGDSVKGRFTISRDDAKNTMYLQMNNLKPEDTAVYRCHKIEWEDLSRKDYWGQGTQVTVS chain 2: GPPCPPCPAPEFLGGPSVFLFPPKPKDTLMISRTPEVTCVVVDVSQEDPEVQFNWYVDGVEVHNAKTKPREEQFNSTYRVVSVLTVLHQDWLNGKEYKCKVSNKGLPSSIEKTISKAKGQPREPQVCTLPPSQEEMTKNQVSLSCAVKGFYPSDIAVEWESNGQPENNYKTTPPVLDSDGSFFLVSRLTVDKSRWQEGNVFSCSVMHEALHNHYTQKSLSLSLGKGGGGSEVQLLESGGGLVQPGGSLRLSCAASGFTFGNYDMAWVRQAPGKRPEWVSSIDTGGDITHYADSVKGRFTISRDNAKNTLYLQMNSLRPEDTAVYWCATDEEYALGPNEFDYYGQGTLVTVSS	8.8	93
CIgG4B1A2(G4S)3 (Fc fusion) chain 1: GPPCPPCPAPEFLGGPSVFLFPPKPKDTLMISRTPEVTCVVVDVSQEDPEVQFNWYVDGVEVHNAKTKPREEQFNSTYRVVSVLTVLHQDWLNGKEYKCKVSNKGLPSSIEKTISKAKGQPREPQVYTLPPCQEEMTKNQVSLWCLVKGFYPSDIAVEWESNGQPENNYKTTPPVLDSDGSFFLYSRLTVDKSRWQEGNVFSCSVMHEALHNHYTQKSLSLSLGKGGGGSGGGGSGGGGSQVQLQESGGGLVQTGGSLRLSCAVHGRTFSNTGMGWFRQAPGNERQFVAIISPSGTSTYYADSVKGRFTISRDPAKNTVYLQMNSLKMDDTAVYYCAASYGSNWSTLRHQRRNEYDAWGQGTQVAVS chain 2: GPPCPPCPAPEFLGGPSVFLFPPKPKDTLMISRTPEVTCVVVDVSQEDPEVQFNWYVDGVEVHNAKTKPREEQFNSTYRVVSVLTVLHQDWLNGKEYKCKVSNKGLPSSIEKTISKAKGQPREPQVCTLPPSQEEMTKNQVSLSCAVKGFYPSDIAVEWESNGQPENNYKTTPPVLDSDGSFFLVSRLTVDKSRWQEGNVFSCSVMHEALHNHYTQKSLSLSLGKGGGGSGGGGSGGGGSEVQLLESGGGLVQPGGSLRLSCAASGFRFGNYDMAWVRQAPGKRYEWVSSIDTGGDITHYADSVKGRFTISRDNAKNTLYLQMNSLRPEDTAEYWCATDEEYALGPNEFDYYGQGTLVTVS	5.3	100
NIgG4B2A1(G4S)2 (Fc fusion) chain 1: QVQLVESGGGLVQAGGSLRLSCAVFGSTFSNNVADWYRQAPGKQRELVARISASGATREYGDSVKGRFTISRDDAKNTMYLQMNNLKPEDTAVYRCHKIEWEDLSRKDYWGQGTQVTVSGGGGSGGGGSGPPCPPCPAPEFLGGPSVFLFPPKPKDTLMISRTPEVTCVVVDVSQEDPEVQFNWYVDGVEVHNAKTKPREEQFNSTYRVVSVLTVLHQDWLNGKEYKCKVSNKGLPSSIEKTISKAKGQPREPQVYTLPPCQEEMTKNQVSLWCLVKGFYPSDIAVEWESNGQPENNYKTTPPVLDSDGSFFLYSRLTVDKSRWQEGNVFSCSVMHEALHNHYTQKSLSLSLGK chain 2: EVQLLESGGGLVQPGGSLRLSCAASGFTFGNYDMAWVRQAPGKRPEWVSSIDTGGDITHYADSVKGRFTISRDNAKNTLYLQMNSLRPEDTAVYWCATDEEYALGPNEFDYYGQGTLVTVSSGGGGSGGGGSGPPCPPCPAPEFLGGPSVFLFPPKPKDTLMISRTPEVTCVVVDVSQEDPEVQFNWYVDGVEVHNAKTKPREEQFNSTYRVVSVLTVLHQDWLNGKEYKCKVSNKGLPSSIEKTISKAKGQPREPQVCTLPPSQEEMTKNQVSLSCAVKGFYPSDIAVEWESNGQPENNYKTTPPVLDSDGSFFLVSRLTVDKSRWQEGNVFSCSVMHEALHNHYTQKSLSLSLGK	0.3	98

— patent US20250171562A1
